Biological target: major capsid protein (MCP) (human cytomegalovirus (HCMV) strain AD169) (UniProt P16729)
Assay: cryo-EM structure

“smallest capsid protein (SCP) (from UniProt Q7M6N6 1-75) (natural protein)” gave a stoichiometry N of 1.
